In patent US20130195872A1 (NOVIMMUNE S A, published 2013):
Numbering of substitutions follows the chain as printed.

Experiments:
[1] = biological target: T1, human IL-17A homodimer (human, UniProt Q16552 20-155, limits assumed); assay: cell-based or functional assay
T1 sequence (looked up): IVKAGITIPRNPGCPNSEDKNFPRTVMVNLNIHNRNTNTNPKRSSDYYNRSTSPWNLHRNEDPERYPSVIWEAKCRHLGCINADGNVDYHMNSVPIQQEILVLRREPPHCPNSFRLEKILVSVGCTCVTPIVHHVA

[2] = biological target: cynomolgus IL-17A/IL-17F heterodimer (cynomolgus); assay: cell-based or functional assay
[3] = biological target: T2, mouse IL-17A/IL-17F heterodimer (mouse, UniProt Q62386 26-158; Q7TNI7 29-161, limits assumed); assay: cell-based or functional assay
T2 sequence (looked up) 1: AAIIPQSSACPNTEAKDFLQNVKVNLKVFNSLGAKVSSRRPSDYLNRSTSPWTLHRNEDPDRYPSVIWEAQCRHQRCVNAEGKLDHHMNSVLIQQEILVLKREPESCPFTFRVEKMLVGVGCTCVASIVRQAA
T2 sequence (looked up) 2: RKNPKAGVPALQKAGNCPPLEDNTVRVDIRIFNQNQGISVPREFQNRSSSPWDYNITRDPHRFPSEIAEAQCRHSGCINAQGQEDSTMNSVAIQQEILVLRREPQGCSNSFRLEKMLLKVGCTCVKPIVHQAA

[4] = biological target: T3, mouse IL-17F homodimer (mouse, UniProt Q7TNI7 29-161, limits assumed); assay: cell-based or functional assay
T3 sequence (looked up): T2 sequence (looked up) 2

[5] = biological target: T4, cynomolgus IL-17A homodimer (cynomolgus, UniProt A0A2K5TTB0 20-155); assay: cell-based or functional assay
T4 sequence: T1 sequence (looked up) with T7A, P12S, N38S, I81V, N82K, P108R

[6] = biological target: T1, human IL-17A homodimer; assay: SPR Biacore, mAb captured, cytokine as analyte
[7] = biological target: T5, cynomolgus IL-17A/IL-17F heterodimer (cynomolgus); assay: SPR Biacore, mAb captured, cytokine as analyte
T5 construct: Produced in house in PEAK cells; how the heterodimer was made is not described; also called cyIL-17A-F heterodimer; cynomolgus IL-17A/F

[8] = biological target: T2, mouse IL-17A/IL-17F heterodimer; assay: SPR Biacore, mAb captured, cytokine as analyte
[9] = biological target: T6, rat IL-17A homodimer (rat, UniProt Q61453 18-150, limits assumed); assay: SPR Biacore, mAb captured, cytokine as analyte
T6 construct: His-tagged, produced in house in PEAK cells; not shown: His tag
T6 sequence (looked up): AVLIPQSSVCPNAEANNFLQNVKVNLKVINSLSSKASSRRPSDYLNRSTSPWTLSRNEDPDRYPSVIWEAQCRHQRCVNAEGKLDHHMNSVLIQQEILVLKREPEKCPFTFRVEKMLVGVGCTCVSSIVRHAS

[10] = biological target: T3, mouse IL-17F homodimer; assay: SPR Biacore, mAb captured, cytokine as analyte
[11] = biological target: T4, cynomolgus IL-17A homodimer; assay: SPR Biacore, mAb captured, cytokine as analyte
[12] = biological target: T7, mouse IL-17A homodimer (mouse, UniProt Q62386 26-158, limits assumed); assay: SPR Biacore, mAb captured, cytokine as analyte
T7 construct: Bought recombinant cytokine; also called muIL-17A
T7 sequence (looked up): T2 sequence (looked up) 1

[13] = biological target: T1, human IL-17A homodimer; assay: cell-based or functional assay; remark: listed apart in the source
[14] = biological target: T4, cynomolgus IL-17A homodimer; assay: cell-based or functional assay; remark: listed apart in the source

B1: 15E6FK antibody (antibody, V domains shown)
VH: EVQLVESGGGLVQPGRSLRLSCAASGFTFDDYAMHWVRQAPGKGLEWVSGINWSSGGIGYADSVKGRFTISRDNAKNSLYLQMNSLRAEDTALYYCARDIGGFGEFYWNFGLWGRGTLVTVSS
VL: not shown
notes: kappa light chain (captured by anti-human IgG-kappa); also called mAb 15E6FK; 15E6FK IgG1
IC50, IL-6 secretion by MEF cells, cytokine at 5 ng/ml [1]: 0.18 nM
IC50, IL-6 secretion by MEF cells, cytokine at 25 ng/ml [2]: 0.08 nM
IC50, IL-6 secretion by MEF cells, cytokine at 50 ng/ml [3]: > 1000 nM
IC50, IL-6 secretion by MEF cells, cytokine at 50 ng/ml [4]: > 1000 nM
IC50, IL-6 secretion by MEF cells, cytokine at 5 ng/ml [5]: 0.04 nM
Kd [6]: 0.0117 nM
Kd [7]: 0.0394 nM
Kd [8]: 0.524 nM
binding result [9]: no binding (tested: up to 90 nM cytokine)
Kd [10]: 0.236 nM
Kd [11]: 0.0104 nM
binding result [12]: no binding (tested: up to 90 nM cytokine)
IC50, IL-6 secretion by HFFF2 human fibroblasts, cytokine at 25 ng/ml [13]: 0.83 nM
IC50, IL-6 secretion by HFFF2 human fibroblasts, cytokine at 25 ng/ml [14]: 0.76 nM
